Test results taken from paper PMC12612255.

Biological target: CNOT1 (UniProt A5YKK6)
Assay: co-IP with FLAG-tagged YTHDF2
Conditions: reference: wild type; sites S39

- binding against the reference: weaker
Substance: YTHDF2 (from UniProt Q9Y5A9) S39A
